Reference: patent US20110027337A1 (IFXA A S, published 2011)

Key:
[1] = tested on: T1, fraction B11SI (cation exchange fraction from potato juice; major inhibitor KPI A-k1, SEQ ID NO:1)
T1 sequence: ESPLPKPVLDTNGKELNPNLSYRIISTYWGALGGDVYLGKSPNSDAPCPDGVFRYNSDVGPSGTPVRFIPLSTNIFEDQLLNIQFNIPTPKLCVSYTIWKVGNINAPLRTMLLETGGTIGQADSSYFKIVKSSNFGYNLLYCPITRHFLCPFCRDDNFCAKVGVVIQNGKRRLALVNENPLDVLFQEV

[2] = tested on: T2, PIfXa (KPI A-k1, Kunitz protease inhibitor purified from potato tuber, Solanum tuberosum cv. Kuras; SEQ ID NO:1)
T2 sequence: T1 sequence

factor Xa (fXa) [3] = biological target: T3, factor Xa (fXa); experiment: amidolytic activity assay: chromozym t-PA hydrolysis by 50 nM fXa, competitive inhibition fit (GraphPad Prism)
T3 chain 1: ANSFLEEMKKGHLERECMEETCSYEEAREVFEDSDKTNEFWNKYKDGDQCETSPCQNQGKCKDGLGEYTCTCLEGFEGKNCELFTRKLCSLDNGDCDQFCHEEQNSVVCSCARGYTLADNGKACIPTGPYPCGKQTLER
T3 chain 2: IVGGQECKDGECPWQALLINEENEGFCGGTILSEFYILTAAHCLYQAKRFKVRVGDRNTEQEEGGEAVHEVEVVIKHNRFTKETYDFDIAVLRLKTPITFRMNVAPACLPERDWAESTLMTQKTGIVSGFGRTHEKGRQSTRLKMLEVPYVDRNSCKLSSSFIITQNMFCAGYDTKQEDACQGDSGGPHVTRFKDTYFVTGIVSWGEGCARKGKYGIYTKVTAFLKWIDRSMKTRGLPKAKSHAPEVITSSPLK

factor Xa (fXa) [4] = biological target: T3, factor Xa (fXa); experiment: amidolytic activity assay: chromozym t-PA hydrolysis by 50 nM fXa, competitive inhibition fit, in the presence of 1 U/mL heparin

factor Xa (fXa) was tested, and the KM of chromozym t-PA hydrolysis by fXa with B11SI (fXa alone 0.23) [1] was 1250 µM, the KM of chromozym t-PA hydrolysis by fXa with B11SI and heparin [1] was 1180 µM and the Vmax of chromozym t-PA hydrolysis by fXa with B11SI (fXa alone 8.8 · 10^-2) [1] was 0.026 mM/min. It also gave a Vmax of chromozym t-PA hydrolysis by fXa with B11SI and heparin [1] of 0.023 mM/min, a reaction rate of chromozym t-PA hydrolysis by 25 nM fXa with 100 µg/mL PIfXa, no antibody (Ctrl without PIfXa 19.2) [2] of 2 µM/min and a reaction rate of chromozym t-PA hydrolysis by fXa with PIfXa, before addition of antibody (sample PlfXa 1:1) [2] of 2.1 µM/min. For the same molecule, the reaction rate of chromozym t-PA hydrolysis by fXa with PIfXa, before addition of antibody (sample PlfXa 1:2.5) [2] was 2.1 µM/min, the reaction rate of chromozym t-PA hydrolysis by fXa with PIfXa, before addition of antibody (sample PlfXa 1:5) [2] was 2.2 µM/min and the reaction rate of chromozym t-PA hydrolysis by fXa with PIfXa, before addition of antibody (sample PlfXa 1:10) [2] was 1.4 µM/min.

B1: fraction B11SI (cation exchange fraction from potato juice; major inhibitor KPI A-k1, SEQ ID NO:1) (other)
chain: T1 sequence
notes: A chromatography fraction, not a pure protein; By nESI the highest peak is 20,830 Da (KPI A-k1 N-terminal variant 3), with further peaks for variants 4, 2 and 1; also called B1151
B1 gave a Ki (factor Xa (fXa) [3]) of 114 nM and a Ki (factor Xa (fXa) [4]) of 101 nM.
